Here are results for two molecules from article PMC10450677, “CD44 acts as a coreceptor for cell-specific enhancement of signaling and regulatory T cell induction by TGM1, a parasite TGF-β mimic” (Proceedings of the National Academy of Sciences of the …, 2023).

The target of assay [1] is T1, TGM1 D4/5 (domains 4 and 5) (Heligmosomoides polygyrus, UniProt A0A2D1LW19 1-422, 125I (chloramine T) in the cross-linking assays; biotin (EZ-Link Sulfo-NHS-LC-Biotin) in the pull-downs; Alexa Fluor 488 in flow cytometry; no label named for ITC).
T1 construct: TGM1, Heligmosomoides polygyrus, GenBank MG099712, domains 4 and 5; D1/2/3 ends at aa 262 and the protein at aa 422; also called TGM1-D4/5-biotin; source: recombinant, purified
T1 sequence: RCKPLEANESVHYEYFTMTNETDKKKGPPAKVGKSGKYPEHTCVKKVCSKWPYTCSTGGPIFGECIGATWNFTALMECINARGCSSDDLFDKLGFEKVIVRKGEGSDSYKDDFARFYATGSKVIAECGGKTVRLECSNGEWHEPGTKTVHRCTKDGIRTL
The assay is described as follows: ITC; CD44 in the syringe, TGM1 protein in the cell; 25 mM sodium phosphate, 50 mM NaCl, pH 6.0, 35 °C; 1:1 binding model, global fit of two replicates. As to conditions: both partners purified. Background: In ITC the heat of successive injections is recorded.

The target of assay [2] is T2, TGM1 full-length (D1/2/3/4/5), aa 19-422 (Heligmosomoides polygyrus, UniProt A0A2D1LW19 19-422, 125I (chloramine T) in the cross-linking assays; biotin (EZ-Link Sulfo-NHS-LC-Biotin) in the pull-downs; Alexa Fluor 488 in flow cytometry; no label named for ITC).
T2 construct: TGF-β mimic TGM1, Heligmosomoides polygyrus, GenBank MG099712 (422-aa protein), aa 19-422, omitting the parasite-encoded signal peptide; also called TGM1-FL; FL; source: HEK293 (pSecTag2A), purified (HiTrap nickel chelating, Superdex 75 as needed)
T2 sequence: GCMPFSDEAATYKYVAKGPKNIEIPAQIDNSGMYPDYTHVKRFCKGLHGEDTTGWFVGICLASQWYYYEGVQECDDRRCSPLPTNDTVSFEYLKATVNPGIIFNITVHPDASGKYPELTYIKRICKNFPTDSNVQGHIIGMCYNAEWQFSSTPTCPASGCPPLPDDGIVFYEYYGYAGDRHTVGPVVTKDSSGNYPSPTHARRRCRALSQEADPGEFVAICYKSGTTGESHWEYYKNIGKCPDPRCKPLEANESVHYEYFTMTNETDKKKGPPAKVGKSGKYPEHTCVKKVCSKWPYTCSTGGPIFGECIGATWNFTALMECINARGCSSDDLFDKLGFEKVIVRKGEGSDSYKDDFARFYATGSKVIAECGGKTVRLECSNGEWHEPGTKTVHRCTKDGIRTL
Described as above. As to conditions: both partners purified.

For orientation: Kd means the free concentration of one partner at which half of the binding sites on the other are occupied at equilibrium, for simple one-to-one binding. Low values mean a tighter complex, high ones a looser complex. A word on the stoichiometry N: it is the number of molecules, sites or subunits per partner or assembly.

B1: mouse CD44 hyaluronan binding domain, aa 23-174 (domain or fragment, UniProt P15379 23-174, looked up)
chain: QIDLNVTCRYAGVFHVEKNGRYSISRTEAADLCQAFNSTLPTMDQMKLALSKGFETCRYGFIEGNVVIPRIHPNAICAANHTGVYILVTSNTSHYDTYCFNASAPPEEDCTSVTDLPNSFDGPVTITIVNRDGTRYSKKGEYRTHQEDIDAS
notes: also called mCD44; murine CD44; source: HEK293 (pcDNA3.1+), purified (HiTrap nickel chelating, Superdex 75 as needed)
Consider B1, for which, in assay [1], binding was put at a Kd of 62 nM, the dH is -19.4 kcal/mol and the “stoichiometry N” value came to 1.4. In assay [2], the Kd came out at 64 nM, the dH is -17.5 kcal/mol and the “stoichiometry N” value stood at 0.8.

B2: human CD44 hyaluronan binding domain, aa 21-169 (domain or fragment, UniProt P16070 21-169, looked up)
chain: QIDLNITCRFAGVFHVEKNGRYSISRTEAADLCKAFNSTLPTMAQMEKALSIGFETCRYGFIEGHVVIPRIHPNSICAANNTGVYILTSNTSQYDTYCFNASAPPEEDCTSVTDLPNAFDGPITITIVNRDGTRYVQKGEYRTNPEDIY
notes: also called hCD44; source: HEK293 (pcDNA3.1+), purified (HiTrap nickel chelating, Superdex 75 as needed)
In the case of B2, in assay [1], binding was put at a Kd of 140 nM, the dH was -9.6 kcal/mol and the “stoichiometry N” value came out at 1.2. For the same molecule, in assay [2], binding was characterised by a dissociation constant (Kd) of 92 nM, the dH was -10.3 kcal/mol and the “stoichiometry N” value is 1.2.
